{"source": "paper PMC6006191", "origin": "cited, not measured here", "target": "GLRX3 (Homo sapiens) (UniProt O76003)", "sequence (O76003 2-335)": "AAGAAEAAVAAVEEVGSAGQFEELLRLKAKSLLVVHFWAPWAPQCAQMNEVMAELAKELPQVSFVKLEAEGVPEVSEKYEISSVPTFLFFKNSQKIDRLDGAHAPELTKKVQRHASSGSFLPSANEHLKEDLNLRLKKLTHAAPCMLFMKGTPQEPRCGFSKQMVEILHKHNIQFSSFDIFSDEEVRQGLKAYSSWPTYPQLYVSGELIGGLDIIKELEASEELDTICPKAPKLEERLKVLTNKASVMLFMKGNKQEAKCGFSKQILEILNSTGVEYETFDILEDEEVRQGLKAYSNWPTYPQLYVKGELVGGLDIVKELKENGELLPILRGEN", "assay": "NMR", "note": "pKd: −log10 of the molar value.", "data": [{"substance": "BOLA2 (apo) (from UniProt Q9H3K6)", "values": [{"measurement": "pKd", "result": 4.60}]}]}
